Assay results as given in article PMC10530080.

Target: recombinant human ATM, wild type (N-terminal FLAG-FKBP1A) (human) (UniProt Q13315)
UniProt Q13315, sequence (Q13315 whole entry): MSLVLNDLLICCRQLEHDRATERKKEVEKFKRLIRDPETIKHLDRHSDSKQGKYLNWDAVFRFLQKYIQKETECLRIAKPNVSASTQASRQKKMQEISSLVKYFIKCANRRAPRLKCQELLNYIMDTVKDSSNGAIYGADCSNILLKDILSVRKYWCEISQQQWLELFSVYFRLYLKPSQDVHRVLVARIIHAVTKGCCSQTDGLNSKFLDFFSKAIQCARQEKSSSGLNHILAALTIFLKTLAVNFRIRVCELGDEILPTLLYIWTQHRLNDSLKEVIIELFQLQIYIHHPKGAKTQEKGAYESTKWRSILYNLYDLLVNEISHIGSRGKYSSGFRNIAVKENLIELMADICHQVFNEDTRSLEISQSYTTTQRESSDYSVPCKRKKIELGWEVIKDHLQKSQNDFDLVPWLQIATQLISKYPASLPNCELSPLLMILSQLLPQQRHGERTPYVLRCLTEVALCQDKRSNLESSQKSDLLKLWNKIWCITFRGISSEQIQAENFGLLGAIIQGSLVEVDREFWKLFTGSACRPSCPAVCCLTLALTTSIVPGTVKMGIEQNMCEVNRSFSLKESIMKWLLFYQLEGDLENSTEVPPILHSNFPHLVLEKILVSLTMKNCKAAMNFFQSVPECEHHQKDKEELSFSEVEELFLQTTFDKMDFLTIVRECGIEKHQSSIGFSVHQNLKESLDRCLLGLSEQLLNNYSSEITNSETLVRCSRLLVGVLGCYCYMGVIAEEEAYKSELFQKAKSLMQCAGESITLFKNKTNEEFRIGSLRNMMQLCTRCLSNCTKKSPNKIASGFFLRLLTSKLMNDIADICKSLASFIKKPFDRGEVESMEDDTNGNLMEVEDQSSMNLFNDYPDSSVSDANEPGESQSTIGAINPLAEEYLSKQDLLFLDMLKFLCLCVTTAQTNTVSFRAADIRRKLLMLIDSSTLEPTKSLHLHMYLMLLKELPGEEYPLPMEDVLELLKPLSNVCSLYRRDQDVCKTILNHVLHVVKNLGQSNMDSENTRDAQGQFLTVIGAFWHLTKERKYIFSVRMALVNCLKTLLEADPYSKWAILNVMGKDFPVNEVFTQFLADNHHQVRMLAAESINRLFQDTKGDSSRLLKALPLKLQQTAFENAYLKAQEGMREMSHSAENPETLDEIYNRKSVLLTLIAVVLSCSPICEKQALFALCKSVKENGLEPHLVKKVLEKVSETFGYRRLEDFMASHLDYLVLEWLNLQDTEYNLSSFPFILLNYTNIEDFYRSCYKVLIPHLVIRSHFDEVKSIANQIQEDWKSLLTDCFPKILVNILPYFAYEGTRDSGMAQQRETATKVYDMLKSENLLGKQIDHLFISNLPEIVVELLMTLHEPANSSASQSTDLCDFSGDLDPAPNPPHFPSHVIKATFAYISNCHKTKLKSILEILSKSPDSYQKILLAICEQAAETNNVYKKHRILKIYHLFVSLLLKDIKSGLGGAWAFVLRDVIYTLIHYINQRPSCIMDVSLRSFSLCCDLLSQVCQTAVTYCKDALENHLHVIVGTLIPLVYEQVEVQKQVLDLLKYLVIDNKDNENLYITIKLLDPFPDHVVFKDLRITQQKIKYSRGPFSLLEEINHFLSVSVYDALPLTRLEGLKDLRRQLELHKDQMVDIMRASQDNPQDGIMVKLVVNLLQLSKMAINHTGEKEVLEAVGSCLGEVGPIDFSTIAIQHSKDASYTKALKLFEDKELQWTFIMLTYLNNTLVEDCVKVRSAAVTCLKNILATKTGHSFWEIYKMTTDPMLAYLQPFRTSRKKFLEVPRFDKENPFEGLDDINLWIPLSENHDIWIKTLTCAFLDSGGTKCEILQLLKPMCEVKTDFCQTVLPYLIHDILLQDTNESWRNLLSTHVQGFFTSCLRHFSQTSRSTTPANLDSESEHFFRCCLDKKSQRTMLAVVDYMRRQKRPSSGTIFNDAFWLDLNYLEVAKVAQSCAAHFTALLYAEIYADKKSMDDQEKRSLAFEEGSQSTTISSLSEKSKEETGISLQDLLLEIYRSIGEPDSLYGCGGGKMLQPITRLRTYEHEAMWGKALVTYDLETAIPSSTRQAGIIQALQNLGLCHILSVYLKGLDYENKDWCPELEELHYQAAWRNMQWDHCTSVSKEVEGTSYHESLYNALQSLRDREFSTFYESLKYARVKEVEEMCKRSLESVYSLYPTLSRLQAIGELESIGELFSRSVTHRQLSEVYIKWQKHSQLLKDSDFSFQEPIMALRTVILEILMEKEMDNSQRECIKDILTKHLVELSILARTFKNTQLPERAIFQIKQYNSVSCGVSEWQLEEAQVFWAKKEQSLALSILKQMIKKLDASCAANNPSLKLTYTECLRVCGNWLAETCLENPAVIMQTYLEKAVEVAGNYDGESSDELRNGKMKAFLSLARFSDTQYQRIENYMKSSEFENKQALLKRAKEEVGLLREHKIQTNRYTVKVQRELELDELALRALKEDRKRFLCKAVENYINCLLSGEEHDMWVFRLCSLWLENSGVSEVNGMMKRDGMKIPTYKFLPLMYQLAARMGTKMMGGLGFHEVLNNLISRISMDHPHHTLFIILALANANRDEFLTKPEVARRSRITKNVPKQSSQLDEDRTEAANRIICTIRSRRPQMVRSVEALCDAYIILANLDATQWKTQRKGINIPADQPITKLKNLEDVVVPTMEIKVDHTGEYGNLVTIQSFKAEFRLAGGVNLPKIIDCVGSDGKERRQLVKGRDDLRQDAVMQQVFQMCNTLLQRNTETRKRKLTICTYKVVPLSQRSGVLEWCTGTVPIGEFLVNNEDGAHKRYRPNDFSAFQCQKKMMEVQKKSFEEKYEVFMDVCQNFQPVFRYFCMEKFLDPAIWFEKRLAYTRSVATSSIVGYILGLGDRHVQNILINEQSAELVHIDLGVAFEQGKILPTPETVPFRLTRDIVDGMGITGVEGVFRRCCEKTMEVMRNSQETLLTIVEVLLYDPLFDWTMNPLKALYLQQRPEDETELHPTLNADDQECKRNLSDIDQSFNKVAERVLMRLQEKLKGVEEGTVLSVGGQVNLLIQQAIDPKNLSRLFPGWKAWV

Substance: His-MBP-TEV-p53(1-102) (from UniProt P04637 1-102) (domain or fragment)
- KM for p53 substrate, ATM activated by H2O2 (Phos-tag gel kinase assay, Michaelis-Menten): 29 µM
- KM for p53 substrate, basal conditions (Phos-tag gel kinase assay, Michaelis-Menten): 80 µM
- KM for p53 substrate, in the presence of MRN and 350-base pair dsDNA (Phos-tag gel kinase assay, Michaelis-Menten): 24 µM
